Assay results as given in PMC8585947, “Structure of Escherichia coli cytochrome bd-II type oxidase with bound aurachin D” (Nature Communications, 2021).

Molecular target: Escherichia coli cytochrome bd-II type oxidase (hetero-trimer of AppC, AppB and AppX) (E. coli) (UniProt P26459)
Experiment: cryo-EM structure; bd-II in amphipol A8-35, 5.6 mg/mL, incubated with aurachin D; 20 mM MOPS, 20 mM NaCl, pH 7.0; C2 symmetry imposed; 3.0 Å

stoichiometry N: 2
Substance: Escherichia coli cytochrome bd-II type oxidase (hetero-trimer of AppC, AppB and AppX) (from UniProt P26459 1-514; P26458 1-378; P24244 1-30) (complex)
